Laboratory results from patent publication US20200024360A1 (Janssen / Centocor, published 2020).

Columns and labels:
[1] = target: T1, Cynomolgous monkey PSMA, full length (Macaca fascicularis, UniProt Q04609 1-750 (human entry)); assay: flow cytometry, mammalian Fab supernatant titrated on cyno PSMA (PSMG5) HEK cells, anti-human kappa-RPE
T1 construct: On transfected HEK293F cells; also called cyno PSMA; EHH56646.1
T1 chain: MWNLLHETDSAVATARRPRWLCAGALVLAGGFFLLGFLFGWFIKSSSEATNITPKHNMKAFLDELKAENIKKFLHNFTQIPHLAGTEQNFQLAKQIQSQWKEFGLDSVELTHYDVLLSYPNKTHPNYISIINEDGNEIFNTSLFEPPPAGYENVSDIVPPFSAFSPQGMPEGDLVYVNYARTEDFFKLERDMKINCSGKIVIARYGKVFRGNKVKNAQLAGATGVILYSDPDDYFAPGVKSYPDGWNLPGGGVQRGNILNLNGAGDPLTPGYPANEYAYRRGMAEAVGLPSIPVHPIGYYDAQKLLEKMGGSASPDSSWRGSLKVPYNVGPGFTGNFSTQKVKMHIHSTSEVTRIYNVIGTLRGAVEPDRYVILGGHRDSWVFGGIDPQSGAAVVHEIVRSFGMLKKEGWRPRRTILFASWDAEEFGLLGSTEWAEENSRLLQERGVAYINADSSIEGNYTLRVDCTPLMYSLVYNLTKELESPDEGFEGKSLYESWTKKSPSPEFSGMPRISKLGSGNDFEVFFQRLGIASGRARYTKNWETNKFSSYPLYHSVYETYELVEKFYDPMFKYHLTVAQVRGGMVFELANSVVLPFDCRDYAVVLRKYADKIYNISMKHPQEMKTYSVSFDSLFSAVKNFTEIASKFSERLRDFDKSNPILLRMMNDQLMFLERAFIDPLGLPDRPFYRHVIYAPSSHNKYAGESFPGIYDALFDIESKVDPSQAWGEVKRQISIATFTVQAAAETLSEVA
Method: Plates were read on a BD FACS Array flow cytometer. FACS data was analyzed in FlowJo software by live gating the healthy population of cells using forward scatter and side scatter, and then analyzing the cells within this gate for PE staining. Mean fluorescence intensity (MFI) was calculated and exported into Microsoft Excel. […] Fabs were sequenced and moved forward for cloning into mammalian expression vector for rescreening. True positives were selected from the binding of mammalian cell expressed Fab supernatants to PSMA-expressing cell lines.
Binding profiles among hits were compared across cell lines expressing different species of PSMA.

[2] = target: T2, cynomolgus CD3ε on primary cynomolgus CD4+ T cells (cynomolgus monkey, UniProt Q95LI5 22-198); assay: FACS, primary cynomolgus CD4+ T cells
T2 construct: whole, on cells
T2 sequence (Q95LI5 22-198): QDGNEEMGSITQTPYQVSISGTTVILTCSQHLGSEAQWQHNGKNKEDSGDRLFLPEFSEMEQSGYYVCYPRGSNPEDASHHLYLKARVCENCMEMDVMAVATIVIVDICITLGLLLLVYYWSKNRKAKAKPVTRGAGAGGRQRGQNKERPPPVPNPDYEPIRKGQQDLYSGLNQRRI

Row | Binder | EC50 (read off the curve) [1] [mg/L] | binding result [2]
1 | PSMB49 (Fab, V domains shown, Fab; also called PSMM50; Fab of mAb PSMB121) VH: QVQLVQSGAEVKKPGSSVKVSCKASGGTFSSYAISWVRQAPGQGLEWMGGIIPIFGTANYAQKFQGRVTITADESTSTAYMELSSLRSEDTAVYYCARASRVWHASYGYLDYWGQGTLVTVSS VL: EIVLTQSPATLSLSPGERATLSCRASQSVSKWLAWYQQKPGQAPRLLIYDASNRATGIPARFSGSGSGTDFTLTISSLEPEDFAVYYCQQRFTAPWTFGQGTKVEIK | ~0.2 | –
2 | G11 (antibody, human IgG1, kappa, V domains shown, In-house phage-derived anti-CD3 control; also called GI) VH: EVQLLESGGGLVQPGGSLRLSCAASGFTFSSYGMSWVRQAPGKGLEWVSGINGGGGSKYYADSVKGRFTISRDNSKNTLYLQMNSLRAEDTAVYYCAKTSAQRFDYWGQGTLVTVSS VL: DIQMTQSPSSLSASVGDRVTITCRASQSISSYLNWYQQKPGAPKLLIYAASSLQSGVPSRFSGSGSGTDFTLTISSLQPEDFATYYCQQSYSLPLTFGQGTKVEIKR | – | no binding
